From patent publication US20050282190, “Modular design and construction of nucleic acid molecules, aptamer-derived nucleic acid constructs, RNA scaffolds, their expression, and methods of use” (published 2005)

Assays:
[1] = biological target: T1, TBP (TATA-binding protein) (UniProt P13393 P13393:1-240); test: filter; conditions: three-way junction with asymmetric internal loop and apical loop
T1 sequence: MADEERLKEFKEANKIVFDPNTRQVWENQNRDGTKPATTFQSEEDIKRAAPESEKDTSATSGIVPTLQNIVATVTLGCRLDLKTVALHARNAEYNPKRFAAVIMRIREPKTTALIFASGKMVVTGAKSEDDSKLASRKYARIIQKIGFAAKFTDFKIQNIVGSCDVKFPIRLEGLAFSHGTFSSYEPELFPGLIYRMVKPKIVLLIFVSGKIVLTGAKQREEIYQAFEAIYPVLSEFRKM

[2] = biological target: T1, TBP (TATA-binding protein); test: filter; AptTBP-101 Kd stated to be similar to that of AptTBP-12 complex; binds DNA-binding surface and competes with TATA-DNA (p252)
Streptavidin [3] = biological target: T2, Streptavidin (UniProt P22629 P22629:25-183); test: EMSA; reduced S1 retains full activity; conditions: tags: ImmunoPure streptavidin, Pierce; HRP or Texas Red conjugates in immunoassays; chain copies: 4
Method: All binding assays were performed in 20 μl volume. The binding buffer contains 50 mM Tris-Cl (pH 7.4), 100 mM NaCl, 15 mM MgCl₂, 10% glycerol, and 1 mM DTT. A typical binding assay using labeled RNA contains about 20 fmole of ³²P-labeled RNA probe and different amounts (1-10 pmole, indicated by L and H in FIG. 5B) of protein or non-labled RNA. The reactions were allowed to equilibrate for 15-20 minutes at ambient temperature before being subjected to EMSA.
For BBS-B52 interaction, EMS assay was performed at 4° C. The binding reaction mixtures were set at 4° C. for 5-10 minutes before being loaded onto a 2.5% agarose gel in ¼ TBE buffer. For the streptavidin aptamers and the TAR aptamers, EMSA were performed at ambient temperature with 6% or 12% native polyacrylamide gel run in TG buffer (25 mM Tris base, 200 mM glycine, and 5 mM MgCl₂).

Streptavidin [4] = biological target: T2, Streptavidin; test: original aptamer used as reference in deletion analysis; conditions: tags: ImmunoPure streptavidin, Pierce; HRP or Texas Red conjugates in immunoassays; chain copies: 4
[5] = biological target: T3, B52 RRMs (two RNA recognition motifs) (UniProt P26686 P26686:4-188); test: Western blot and dot blot; as low as 1 ng protein detected; conditions: tags: His; two fused three-way junctions, two BBS and two S1 aptamers
Method: (§1) Western blot analysis for antibodies was performed according to a standard protocol (Harlow et al., Using Antibodies: A Laboratory Manual. Cold Spring Harbor, Cold Spring Harbor Laboratory Press (1999), which is hereby incorporated by reference in its entirety). For the aptabodies, proteins were separated on 8% SDS-PAGE and transferred to nitrocellulose membrane according to the aforementioned standard protocol. Subsequent steps were also identical except the following substitutions. The RNA aptabody B-S (FIG. 5A) (10 μg/ml) and horseradish peroxidase conjugated streptavidin (1 μg/ml) were used to replace the primary and secondary antibodies. […]
(§2) First, a Western blot analysis was conducted with the aptabodies and a monoclonal antibody against B52. The sample to be analyzed contained a full-length B52 produced from a baculovirus expression system, a His-tagged B52 deletion construct that contained the two RNA recognition motifs recognized by the aptamers and the monoclonal antibody By32 (Champlin et al., “Characterization of a Drosophila Protein Associated with Boundaries of Transcriptionally Active Chromatin,” Genes and Development 5:1611-1621 (1991), which is hereby incorporated by reference in its entirety), and a His-tagged Drosophila heat shock factor as control. […]

Streptavidin [6] = biological target: T2, Streptavidin; test: streptavidin conjugates as secondary reagent in Western, dot blot and immunofluorescence; conditions: tags: ImmunoPure streptavidin, Pierce; HRP or Texas Red conjugates in immunoassays; chain copies: 4; two fused three-way junctions, two BBS and two S1 aptamers
[7] = biological target: T4, B52 (SR protein), full-length (UniProt P26686 P26686:2-350); test: Western blot with HRP-streptavidin; 15 mM MgCl2; conditions: tags: baculovirus expressed; two fused three-way junctions, two BBS and two S1 aptamers
Method: as §1, §2

[8] = biological target: T3, B52 RRMs (two RNA recognition motifs); test: Western blot with B-R then T-S then HRP-streptavidin; conditions: tags: His; two fused three-way junctions, two BBS and two R-06 modules
Method: as §1, §2

[9] = biological target: T4, B52 (SR protein), full-length; test: as above; conditions: tags: baculovirus expressed; two fused three-way junctions, two BBS and two R-06 modules
Method: as §1, §2

Streptavidin [10] = biological target: T2, Streptavidin; test: T-S secondary aptabody detected by HRP-streptavidin; conditions: tags: ImmunoPure streptavidin, Pierce; HRP or Texas Red conjugates in immunoassays; chain copies: 4; two fused three-way junctions, two TAR-Mal and two S1 modules
Method: as §1, §2

[11] = biological target: T1, TBP (TATA-binding protein); test: reduced form fully retained binding; used to mask DNA-binding surface of TBP
HSF (heat shock factor) = biological target: T5, HSF (heat shock factor) (UniProt P22813 P22813:1-691); test: EMSA; affinity measured, value only in figure; conditions: tags: His; three-way junction
T5 sequence: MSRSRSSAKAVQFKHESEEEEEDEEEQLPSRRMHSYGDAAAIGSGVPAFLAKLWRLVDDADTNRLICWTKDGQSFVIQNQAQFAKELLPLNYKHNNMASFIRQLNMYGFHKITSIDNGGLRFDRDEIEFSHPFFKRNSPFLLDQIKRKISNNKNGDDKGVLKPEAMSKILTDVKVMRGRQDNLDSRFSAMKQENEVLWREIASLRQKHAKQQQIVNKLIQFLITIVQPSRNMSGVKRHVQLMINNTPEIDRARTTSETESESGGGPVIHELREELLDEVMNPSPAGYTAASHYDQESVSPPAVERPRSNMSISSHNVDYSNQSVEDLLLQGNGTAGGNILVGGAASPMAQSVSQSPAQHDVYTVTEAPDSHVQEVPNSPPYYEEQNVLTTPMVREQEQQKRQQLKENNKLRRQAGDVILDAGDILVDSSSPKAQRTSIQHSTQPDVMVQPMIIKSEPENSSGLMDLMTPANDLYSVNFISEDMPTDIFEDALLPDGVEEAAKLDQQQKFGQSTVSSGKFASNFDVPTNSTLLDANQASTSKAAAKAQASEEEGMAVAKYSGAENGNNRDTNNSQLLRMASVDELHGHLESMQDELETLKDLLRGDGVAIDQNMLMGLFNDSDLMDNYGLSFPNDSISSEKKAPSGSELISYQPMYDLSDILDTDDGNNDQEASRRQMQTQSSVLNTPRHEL

T2 sequence (P22629 25-183, one chain of several): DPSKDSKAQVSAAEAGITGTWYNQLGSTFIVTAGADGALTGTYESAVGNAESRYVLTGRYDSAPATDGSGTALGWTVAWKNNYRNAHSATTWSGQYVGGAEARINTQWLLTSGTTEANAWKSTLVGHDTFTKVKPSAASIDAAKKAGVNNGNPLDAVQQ
T4 sequence (P26686 other isoform, or with tags, fused parts or gaps): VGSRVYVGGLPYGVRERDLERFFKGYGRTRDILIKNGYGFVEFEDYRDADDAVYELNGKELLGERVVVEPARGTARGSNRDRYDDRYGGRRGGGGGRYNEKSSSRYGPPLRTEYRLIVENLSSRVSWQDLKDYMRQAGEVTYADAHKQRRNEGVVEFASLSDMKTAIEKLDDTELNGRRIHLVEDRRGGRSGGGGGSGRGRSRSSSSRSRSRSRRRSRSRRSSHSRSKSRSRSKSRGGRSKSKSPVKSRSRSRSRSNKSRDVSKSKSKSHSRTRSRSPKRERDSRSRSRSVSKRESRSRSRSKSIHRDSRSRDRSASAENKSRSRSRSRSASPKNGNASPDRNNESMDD
T3 sequence (P26686 other isoform, or with tags, fused parts or gaps): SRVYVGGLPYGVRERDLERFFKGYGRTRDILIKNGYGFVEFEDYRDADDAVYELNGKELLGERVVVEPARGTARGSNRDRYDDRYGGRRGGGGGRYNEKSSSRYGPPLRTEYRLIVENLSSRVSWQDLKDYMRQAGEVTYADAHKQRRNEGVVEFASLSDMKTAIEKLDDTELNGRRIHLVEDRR

B1: AptTBP-101 (ssRNA)
RNA: GGGAGAAUUCAACUGCCAUCUAGGCAGCCAAGGUAAACAAUUCAGUUAGUGGAAUGAAACUGCCCAACACCAGAAGUACUACAAGCUUCUGGACUCGGU
With B1 the Kd [1] was 2 nM.

B2: AptTBP-12 (ssRNA)
RNA: GGGAGAAUUCAACUGCCAUCUAGGCGCCGUGCCCGGUUUGGAUAGGCACAUAAGACGCCGACAAAGAAACCAACCAGUACUACAAGCUUCUGGACUCGGU
In the case of B2, the Kd [2] is reported as about 2 nM.

GGGACCGACCAGAAUCAUGCAAGUGCGUAAGAUAGUCGCGGGCCGGG (ssRNA) [S1 con]: binds (Streptavidin [3]).

B3: S1 (ssRNA)
RNA: GGGAGUCGACCGACCAGAAUCAUGCAAGUGCGUAAGAUAGUCGCGGGCCGGGGGCGUAUUAUGUGCGUCUACAUCUAGACUCAU
B3: binds (Streptavidin [4]).

B4: aptabody B-S (ssRNA)
RNA: GGGAUCGCCGCGGCUGGUCAACCAGGCGACCGCCGCGGCCACAGCGGUGGGCUGGUCAACCAGGCGACCGCCCACCAGCGUUCCCGGAUCCGUGACCGACCAGAAUCAUGCAAGUGCGUAAGAUAGUCGCGGGUCGGGUCAUACUCCCGGCCAGAAUCAUGCAAGUGCGUAAGAUAGUCGCGGGCCGGGAGGCGGAUUC
B4: binds [5]; binds (Streptavidin [6]); binds [7].

B5: aptabody B-R (ssRNA)
RNA: GGGAUCGCCGCGGCUGGUCAACCAGGCGACCGCCGCGGCCACAGCGGUGGGCUGGUCAACCAGGCGACCGCCCACCAGCGUUCCCGGAUCCGUGACGUCAACACGGUCCCGGACGUGUUGACGUCCAUACUCCUCAACACGGUCCCGGACGUGUUGAGGAGGCGGAUUC
B5: binds [8]; binds [9].

B6: aptabody T-S (ssRNA)
RNA: GGGAUCGCCGCCGAGCCCGGGAGCUCGGCGGCCACAGCGGUGGGAGCCCGGGAGCUCCCACCAGCGUUCCCGGAUCCGUGACCGACCAGAAUCAUGCAAGUGCGUAAGAUAGUCGCGGGUCGGGUCAUACUCCCGGCCAGAAUCAUGCAAGUGCGUAAGAUAGUCGCGGGCCGGGAGGCGGAUUC
B6: binds (Streptavidin [10]).

GGCGCCGUGCCCGGUUUGGAUAGGCACAUAAGACGCC (ssRNA) [m12 (mini AptTBP-12)]: binds [11].

B7: RA1-HSF (ssRNA)
RNA: GGGAGAAUUCAACUGCCAUCUAGGCAUCGCGAUACAAAAUUAAGUUGAACGCGAGUUCUCCAUCUAGUACUACAAGCUUCUGGACUCGGU
B7: binds (HSF (heat shock factor)).
